This passage reports activity results from patent US20200339638.

Where only a bound is given, the exact number is not on record here.

What all share (test): cell_activity
Data set [1] deals with ZFP-TF 75109 (synthetic). The following applies: expanded isoform, C9 patient fibroblasts; about 50% total C9 maintained.
The test system of data set [2] is ZFP-TF 75115 (synthetic). The following applies: expanded sense transcript, C9021 fibroblasts; total C9 preserved >50%.
Data set [3] concerns ZFP-TF 75114 (synthetic). To be noted: expanded sense transcript, C9021 fibroblasts; total C9 preserved >50%; no repression in C9-BAC mice (p172).

As for “CACGCCCCGGCCCCGGCCCCGGCCCCTA (double strand) [C9orf72 antisense target, frame 4]”, the activity in data set [1] is 70 % repression; in data set [2], above 70 % repression; in data set [3] it was above 70 % repression.
